Target: human Claudin18.2 (Homo sapiens, UniProt P56856)
Assay: FACS affinity of chimeric antibodies to Ba/F3-Claudin18.2 cells
Format: binding
Set-up: expressed in transfected cells; host or cells: Ba/F3 (BaF/3, DSMZ ACC300), hygromycin-selected monoclonal line
Source text: The amino acid sequence of the light chain variable region of 1E9.2, 2C6.9, 6B9.22, 9C8.1, 16A9.11, 19G10.14 or 19H11.6 was linked to the amino acid sequence of the light chain constant region κ (SEQ ID NO: 43) respectively; the amino acid sequence of the heavy chain variable region was linked to the amino acid sequence of IgG1 heavy chain constant region (SEQ ID NO: 42) respectively, to construct the chimeric antibody. Codon optimized cDNA was synthesized and cloned to pcDNA3.4 (synthesized by Nanjing Genscript Biotech Corporation). The pcDNA3.4 plasmids coding the light chain and heavy chain of each antibody were co-transfected to Expi293F cells (purchased from Thermo Fisher). The antibodies were purified from culture supernatant by protein A (MabSelect SuRe, GE). And the purified chimeric antibodies were named 1E9.2-hz00, 2C6.9-hz00, 6B9.22-hz00, 9C8.1-hz00, 16A9.11-hz00, 19G10.14-hz00 and 19H11.6-hz00.
The affinity of the anti-Claudin18.2 chimeric antibodies to Ba/F3-Claudin18.2 cells were determined. […] The cells were then analyzed by FACS.

Substance: IMAB362: Zolbetuximab (IMAB362) developed by Astellas, human-mouse chimeric IgG1 antibody targeting Claudin 18.2; control antibody, sequences from CN 101312989 B [reference compound]
- Max MFI: 8.97 ×10^6

— US12297265B2, “Antibody and use thereof” (SICHUAN KELUN-BIOTECH BIOPHARMACEUTICAL CO., LTD., priority 2018, dated 2025)
